Test [1] deals with T1, mouse OX40 receptor, cell-expressed (DO11.10-mOX40) (mouse, UniProt P47741 20-272).
T1 sequence: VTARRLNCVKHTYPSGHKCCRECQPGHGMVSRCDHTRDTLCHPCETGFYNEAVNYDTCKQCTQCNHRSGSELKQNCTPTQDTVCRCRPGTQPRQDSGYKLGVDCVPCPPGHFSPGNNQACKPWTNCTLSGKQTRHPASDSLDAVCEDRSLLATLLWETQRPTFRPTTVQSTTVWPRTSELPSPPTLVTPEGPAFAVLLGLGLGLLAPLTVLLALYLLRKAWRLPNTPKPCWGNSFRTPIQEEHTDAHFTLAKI
The test can be described thus: cell-based or functional assay.

Test [2] deals with T1, mouse OX40 receptor, cell-expressed …. Nature of the test: cell-based or functional assay. The source holds these as a separate data set.
Test [3] has the same target. The test can be described thus: flow cytometry on DO11.10-mOX40 cells. Here is the method:
Non-specific binding was also assessed by testing for binding to HEK cells not expressing OX40 by flow cytometry.
DO11.10 mOX40 or HEK cell suspensions were prepared in PBS+2% BSA (Sigma, A7906) and seeded at 4×10⁶ cell/ml with 50 μl/well in V-bottomed 96-well plates (Costar, 3897). […] The data was fit using log (agonist) vs response in GraphPad Prism Software.
On the technique in general: Flow cytometry measures light scatter and fluorescence of single cells or particles in a stream.

For test [4] the target is unchanged. The test can be described thus: flow cytometry, labelled antibody on DO11.10-mOX40 cells.
The target of test [5] is T2, human OX40 receptor, cell-expressed (DO11.10-hOX40) (human, UniProt P43489 29-277).
T2 construct: also called CD134; TNFRSF4
T2 sequence: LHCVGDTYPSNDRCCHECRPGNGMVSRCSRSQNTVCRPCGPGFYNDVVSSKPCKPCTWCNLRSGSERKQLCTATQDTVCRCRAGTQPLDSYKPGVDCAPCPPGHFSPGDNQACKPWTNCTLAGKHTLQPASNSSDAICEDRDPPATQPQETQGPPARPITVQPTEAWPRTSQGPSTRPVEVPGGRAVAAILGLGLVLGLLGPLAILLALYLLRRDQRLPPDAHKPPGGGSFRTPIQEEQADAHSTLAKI
The test can be described thus: cell binding, DO11.10-hOX40 cells, soluble Fcab.

In test [6] the target is T3, mouse CD40 (mouse, UniProt P27512 24-193, limits assumed).
T3 construct: Amine-coupled to a CM5 chip
T3 sequence (looked up): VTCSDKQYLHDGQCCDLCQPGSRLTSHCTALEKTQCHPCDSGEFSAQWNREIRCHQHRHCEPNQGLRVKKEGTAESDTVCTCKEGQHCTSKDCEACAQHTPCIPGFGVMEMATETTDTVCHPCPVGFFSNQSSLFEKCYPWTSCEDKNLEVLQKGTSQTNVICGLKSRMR
The test can be described thus: SPR (Biacore T200), receptor on CM5 chip.

Test [7] has as its target T4, mouse TNFRI (mouse, UniProt P25118 22-212, limits assumed).
T4 construct: Amine-coupled to a CM5 chip
T4 sequence (looked up): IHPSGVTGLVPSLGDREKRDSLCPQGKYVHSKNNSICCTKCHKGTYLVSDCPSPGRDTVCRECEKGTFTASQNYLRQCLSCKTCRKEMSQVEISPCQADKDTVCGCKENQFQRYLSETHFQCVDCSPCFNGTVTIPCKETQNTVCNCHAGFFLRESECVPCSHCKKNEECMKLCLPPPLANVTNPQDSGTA
The test can be described thus: SPR (Biacore T200), receptor on CM5 chip. In general terms: Surface plasmon resonance follows binding to a sensor surface in real time, without labels.

In test [8] the target is T5, mouse TNFRII (mouse, UniProt P25119 23-258, limits assumed).
T5 construct: Amine-coupled to a CM5 chip
T5 sequence (looked up): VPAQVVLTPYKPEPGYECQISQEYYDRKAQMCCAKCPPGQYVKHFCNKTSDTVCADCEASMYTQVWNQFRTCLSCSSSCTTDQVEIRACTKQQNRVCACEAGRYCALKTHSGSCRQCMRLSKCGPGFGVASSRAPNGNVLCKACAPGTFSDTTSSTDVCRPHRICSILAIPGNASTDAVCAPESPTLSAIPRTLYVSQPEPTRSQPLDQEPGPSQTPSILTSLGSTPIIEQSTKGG
The test can be described thus: SPR (Biacore T200), receptor on CM5 chip.

Test [9] concerns the target T6, mouse NGFR (mouse, UniProt Q9Z0W1 32-254, limits assumed).
T6 construct: Amine-coupled to a CM5 chip
T6 sequence (looked up): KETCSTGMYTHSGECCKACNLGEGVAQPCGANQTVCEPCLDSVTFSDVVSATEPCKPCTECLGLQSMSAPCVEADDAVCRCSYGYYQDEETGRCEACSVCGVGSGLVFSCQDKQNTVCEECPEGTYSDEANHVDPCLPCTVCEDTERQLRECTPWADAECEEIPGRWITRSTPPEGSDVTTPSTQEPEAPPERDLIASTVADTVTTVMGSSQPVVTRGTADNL
The test can be described thus: SPR (Biacore T200), receptor on CM5 chip.

The target of test [10] is T7, mouse CD137 (mouse, UniProt P20334 24-187, limits assumed).
T7 construct: Amine-coupled to a CM5 chip; also called 4-1BB
T7 sequence (looked up): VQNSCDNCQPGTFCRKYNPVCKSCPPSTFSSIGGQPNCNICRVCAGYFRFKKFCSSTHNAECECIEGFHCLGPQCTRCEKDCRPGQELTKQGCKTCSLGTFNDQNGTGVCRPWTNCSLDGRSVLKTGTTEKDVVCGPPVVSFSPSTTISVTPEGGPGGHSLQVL
The test can be described thus: SPR (Biacore T200), receptor on CM5 chip.

In test [11] the target is T1, mouse OX40 receptor, cell-expressed …. Nature of the test: cell-based or functional assay. This is another data set of the same source.
The target is the same in test [12]. The test can be described thus: cell-based or functional assay. The source holds these as a separate data set.

This note sets out measurements from US20250361312A1 (INVOX PHARMA, published 2025).

For orientation: EC50 means the concentration needed to bring the measured effect to its halfway point. A higher EC50 goes with lower potency in that assay.

Where two headings read alike, the source gives them in different places. A value given as a limit tells only on which side of the number the result lay.

B1: G1AA/OX86 (antibody, human IgG1, kappa, L234A L235A, V domains shown)
VH: QVQLKESGPGLVQPSQTLSLTCTVSGFSLTGYNLHWVRQPPGKGLEWMGRMRYDGDTYYNSVLKSRLSISRDTSKNQVFLKMNSLQTDDTAIYYCTRDGRGDSFDYWGQGVMVTVSS
VL: DIVMTQGALPNPVPSGESASITCRSSQSLVYKDGQTYLNWFLQRPGQSPQLLTYWMSTRASGVSDRFSGSGSGTYFTLKISRVRAEDAGVYYCQQVREYPFTFGSGTKLEIKR
notes: also called anti-mouse OX40 mAb OX86 in a human IgG1 backbone with the LALA mutation
For the molecule B1, the “EC50 of IL-2 release, crosslinked (anti-human CH2 mAb)” value in [1] is 1.75 nM. For the same molecule, in [2], the “EC50 of IL-2 release, Xlink (anti-hCH2)” value came to 0.463 nM. Also, a half-maximal response in test [3] (EC50) required 3.1 nM.

B2: antibody OX86 (Biolegend cat no 119408) (antibody, V domains shown)
VH: QVQLKESGPGLVQPSQTLSLTCTVSGFSLTGYNLHWVRQPPGKGLEWMGRMRYDGDTYYNSVLKSRLSISRDTSKNQVFLKMNSLQTDDTAIYYCTRDGRGDSFDYWGQGVMVTVSS
VL: DIVMTQGALPNPVPSGESASITCRSSQSLVYKDGQTYLNWFLQRPGQSPQLLTYWMSTRASGVSDRFSGSGSGTYFTLKISRVRAEDAGVYYCQQVREYPFTFGSGTKLEIK
Take B2: the “fluorescence over non-transduced cells” value in test [4] was ≥ 10 fold.

B3: Fcab FS20-22 (designed binder)
chain: TCPPCPAPELLGGPSVFLFPPKPKDTLMISRTPEVTCVVVDVSHEDPEVKFNWYVDGVEVHNAKTKPREEQYNSTYRVVSVLTVLHQDWLNGKEYKCKVSNKALPAPIEKTISKAKGQPREPQVYTLPPSRDEYWDQEVSLTCLVKGFYPSDIAVEWESNGQPENNYKTTPPVLDSDGSFFLYSKLTVDQYRWNPGGYFSCSVMHEALHNHYTQKSLSLSPG
notes: Soluble Fcab
As to B3, the binding result in test [5] is listed as “binds”.

B4: Fcab FS20-31 (designed binder)
chain: TCPPCPAPELLGGPSVFLFPPKPKDTLMISRTPEVTCVVVDVSHEDPEVKFNWYVDGVEVHNAKTKPREEQYNSTYRVVSVLTVLHQDWLNGKEYKCKVSNKALPAPIEKTISKAKGQPREPQVYTLPPSRDEYYSGEVSLTCLVKGFYPSDIAVEWESNGQPENDYKTTPPVLDSDGSFFLYSKLTVPYWRWGGPGTFSCSVMHEALHNHYTQKSLSLSPG
notes: Soluble Fcab
Turning to B4, the binding result in test [5] is listed as “binds”.

B5: FS20m-232-91AA/HEL D1.3 (bispecific antibody, human IgG1, kappa, L234A L235A, V domains shown)
VH: QVQLQESGPGLVRPSQTLSLTCTVSGSTFSGYGVNWVRQPPGRGLEWIGMIWGDGNTDYNSALKSRVTMLVDTSKNQFSLRLSSVTAADTAVYYCARERDYRLDYWGQGSLVTVSS
VL: DIQMTQSPASLSASVGETVTITCRASGNIHNYLAWYQQKQGKSPQLLVYNAKTLADGVPSRFSGSGSGTQYSLKINSLQPEDFGSYYCQHFWSTPRTFGGGTKLEIKR
notes: Human IgG1 with anti-HEL D1.3 Fab and LALA; also called FS20m-232-91 in mock (HEL D1.3 LALA) mAb^2 format; FS20m-232-91/HelD1.3 mock mAb^2 with LALA mutation
For the molecule B5, the binding result in [6], in test [7], in [8], in test [9] and in test [10] was “no binding (tested: 1 µM)” throughout.

B6: FS20m-232-91AA/4420 (bispecific antibody, human IgG1, kappa, L234A L235A)
heavy: EVKLDETGGGLVQPGRPMKLSCVASGFTFSDYWMNWVRQSPEKGLEWVAQIRNKPYNYETYYSDSVKGRFTISRDDSKSSVYLQMNNLRVEDMGIYYCTGSYYGMDYWGQGTSVTVSSASTKGPSVFPLAPSSKSTSGGTAALGCLVKDYFPEPVTVSWNSGALTSGVHTFPAVLQSSGLYSLSSVVTVPSSSLGTQTYICNVNHKPSNTKVDKKVEPKSCDKTHTCPPCPAPEAAGGPSVFLFPPKPKDTLMISRTPEVTCVVVDVSHEDPEVKFNWYVDGVEVHNAKTKPREEQYNSTYRVVSVLTVLHQDWLNGKEYKCKVSNKALPAPIEKTISKAKGQPREPQVYTLPPSRDELFDPMYYYNQVSLTCLVKGFYPSDIAVEWESNGEPLWDYKTTPPVLDSDGSFFLYSKLTVWRDRWEDGNVFSCSVMHEALHNHYTQKSLSLSPG
light: DVVMTQTPLSLPVSLGDQASISCRSSQSLVHSNGNTYLRWYLQKPGQSPKVLIYKVSNRFSGVPDRFSGSGSGTDFTLKISRVEAEDLGVYFCSQSTHVPWTFGGGTKLEIKRTVAAPSVFIFPPSDEQLKSGTASVVCLLNNFYPREAKVQWKVDNALQSGNSQESVTEQDSKDSTYSLSSTLTLSKADYEKHKVYACEVTHQGLSSPVTKSFNRGEC
notes: Human IgG1 with anti-FITC 4420 Fab and LALA; The mouse OX40 site is in the CH3 domain; also called mFS20-232-91AA/4420; anti-mouse OX40 Fcab FS20m-232-91 in mock (4420 LALA) mAb^2 format
With B6, the “EC50 of IL-2 release, crosslinked (FITC-dextran)” value in test [1] is 0.67 nM. In addition, in test [11], the “EC50 of IL-2 release, HPAC cells present, + FITCdex” value was 0.548 nM and the “EC50 of IL-2 release, HPAC cells present, + G1/E2A + a-hFc + FITCdex” value came out at 2.09 nM. Also, the “EC50 of IL-2 release, Xlink (FITC-dextran)” value in [12] worked out at 0.629 nM. Also, in test [2], the “EC50 of IL-2 release, Xlink (FITC-dextran)” value was 0.158 nM and the “EC50 of IL-2 release, no crosslinker” value came out at 76.4 nM. The molecule further had an EC50 in test [3] of 1.01 nM.
